Reference: patent publication US20190345246A1 (TYMPOBIO, published 2019)

B1: canakinumab (antibody, V domains shown)
VH: QVQLVESGGGVVQPGRSLRLSCAASGFTFSVYGMNWVRQAPGKGLEWVAIIWYDGDNQYYADSVKGRFTISRDNSKNTLYLQMNGLRAEDTAVYYCARDLRTGPFDYWGQGTLVTVSS
VL: EIVLTQSPDFQSVTPKEKVTITCRASQSIGSSLHWYQQKPDQSPKLLIKYASQSFSGVPSRFSGSGSGTDFTLTINSLEAEDAAAYYCHQSSSLPFTFGPGTKVDIKR
B2: DLX-2323 (scFv)
scFv: EIVMTQSPSTLSASVGDRVIITCQASQSIDNWLSWYQQKPGKAPKLLIYRASTLASGVPSRFSGSGSGAEFTLTISSLQPDDFATYYCQNTGGGVSIAFGQGTKLTVLGGGGGSGGGGSGGGGSGGGGSEVQLVESGGGLVQPGGSLRLSCTASGFSLSSAAMAWVRQAPGKGLEWVGIIYDSASTYYASWAKGRFTISRDTSKNTVYLQMNSLRAEDTAVYYCARERAIFSGDFVLWGQGTLVTVSS
notes: Humanized single chain antibody fragment expressed in E. coli (inclusion bodies)

What was measured:
recombinant human IL-1β [1] = target: T1, recombinant human IL-1β (human, UniProt P01584 117-269); assay: cell-based or functional assay
recombinant human IL-1β [2] = target: T1, recombinant human IL-1β; assay: cell-based or functional assay; remark: listed apart in the source
recombinant human IL-1β [3] = target: T1, recombinant human IL-1β; assay: cell-based or functional assay; remark: listed apart in the source
Cynomolgus rIL-1β = target: T2, Cynomolgus rIL-1β (cynomolgus, UniProt P79182 117-268, limits assumed); assay: cross-reactivity table (direct ELISA)
T2 construct: also called cynomolgus IL-1β
Method: (§1) Plate wells were coated with each protein and incubated overnight at 4° C.

Rhesus monkey rIL-1β = target: T3, Rhesus monkey rIL-1β (rhesus monkey, UniProt P48090 117-269); assay: cross-reactivity table (direct ELISA)
T3 construct: also called rhesus macaque IL-1β; rhesus IL-1β
Method: as §1

recombinant human IL-1β [4] = target: T1, recombinant human IL-1β; assay: Kinetic Exclusion Assay (KinExA, Sapidyne)
Excerpt: Kd is a specific type of equilibrium constant that measures the propensity of a larger object to separate (dissociate) reversibly into smaller components. A Kd analysis requires immobilization of one interaction partner (the […] binding partner) to a solid phase which is then used as a probe to capture the other interaction partner. For each experiment, one of the binding partners is titrated in a background of the captured binding partner (CBP) and allowed to reach equilibrium. The solutions are then briefly exposed to the solid phase and a portion of free CBP is captured. The captured CBP is then labelled with a fluorescent secondary molecule. The signals generated from CBP are used to calculate the Kd value which is directly proportional to the concentration of free CBP in the equilibrated sample.

recombinant canine IL-1β = target: T4, recombinant canine IL-1β (canine, UniProt Q28292 115-266, limits assumed); assay: cross-reactivity table (Table 2), direct ELISA; text: no detectable binding to canine IL-1β
T4 construct: also called Canine rIL-1β
T4 sequence (looked up): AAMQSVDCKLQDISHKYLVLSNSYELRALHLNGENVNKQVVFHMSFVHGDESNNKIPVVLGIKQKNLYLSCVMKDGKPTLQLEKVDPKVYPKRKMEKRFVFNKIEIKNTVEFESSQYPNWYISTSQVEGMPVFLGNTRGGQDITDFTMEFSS
Method: Recombinant human IL-1β 1 mg/ml was diluted with the coating buffer to a final concentration of 2 μg/ml. 50 μl was added to the designated wells. Canine IL-1β, porcine/swine IL-1β, guinea pig IL-1β, human IL-1ra and human IL-6 were diluted in the coating buffer and added to distinct wells on the plates. Plates were incubated overnight at 4° C. […] The bound scFvs and control antibodies were detected with Protein L-Peroxidase L-HRP (1:3000), rabbit anti-goat HRP (1:5000) and streptavidin HRP (1:3000).

T2 sequence (P79182 117-268 limits assumed): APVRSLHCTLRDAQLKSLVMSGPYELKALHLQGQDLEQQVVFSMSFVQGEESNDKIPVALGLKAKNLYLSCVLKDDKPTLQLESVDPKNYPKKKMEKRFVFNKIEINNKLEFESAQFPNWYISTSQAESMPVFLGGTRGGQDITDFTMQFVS
T3 sequence (P48090 117-269 limits assumed): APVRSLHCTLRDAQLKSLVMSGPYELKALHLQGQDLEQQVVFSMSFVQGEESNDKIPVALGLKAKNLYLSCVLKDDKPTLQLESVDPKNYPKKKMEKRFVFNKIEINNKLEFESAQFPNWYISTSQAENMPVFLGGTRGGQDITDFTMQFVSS

Binder | IC50 (read off the curve), inhibition of rhIL-1β-induced IL-6 release from human dermal fibroblasts (recombinant human IL-1β [1]) [pM] | IC50, inhibition of IL-1β-induced IL-6 release from normal human dermal fibroblasts (IL-6 ELISA) (recombinant human IL-1β [2]) [pM] | potency relative to IL-1RA, inhibition of IL-1β-induced IL-6 release (recombinant human IL-1β [2]) [fold] | IC50 (column head of Table 2) (recombinant human IL-1β [3]) [pM] | binding result (Cynomolgus rIL-1β) | binding result (Rhesus monkey rIL-1β) | Kd (recombinant human IL-1β [4]) [pM] | koff (recombinant human IL-1β [4]) [s⁻¹] | kon (recombinant human IL-1β [4]) [M⁻¹ s⁻¹] | binding result (recombinant canine IL-1β)
B1 | ~60 |  |  |  |  |  |  |  |  | 
B2 |  | 3 | 10 | 2 to 3 | binds | binds | 0.756 | 5.7e-06 | 7.55e+06 | no binding
